Laboratory results: publication PMC10556141

Molecular target: T1, S. cerevisiae Rad51 (S. cerevisiae), P25454
T1 chain: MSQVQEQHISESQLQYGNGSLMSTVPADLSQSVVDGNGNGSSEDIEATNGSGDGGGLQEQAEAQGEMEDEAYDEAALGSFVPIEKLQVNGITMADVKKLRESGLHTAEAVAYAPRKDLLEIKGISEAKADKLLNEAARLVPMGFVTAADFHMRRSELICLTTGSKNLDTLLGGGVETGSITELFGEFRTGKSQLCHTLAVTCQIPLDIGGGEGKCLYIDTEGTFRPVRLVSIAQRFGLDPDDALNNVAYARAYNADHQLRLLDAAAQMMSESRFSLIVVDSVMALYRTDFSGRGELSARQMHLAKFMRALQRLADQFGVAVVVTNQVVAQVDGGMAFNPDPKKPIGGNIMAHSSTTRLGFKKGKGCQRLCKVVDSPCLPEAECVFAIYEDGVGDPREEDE
Assay: mass photometry; TwoMP instrument; protein diluted to about 8-10 nM decamers in the well; 50 mM Tris-acetate pH 7.5, 50 mM KCl, 5 mM MgCl2
Details: remark: other sources report otherwise

B1: S. cerevisiae Rad51, P25454 1-400 (natural protein)
chain: MSQVQEQHISESQLQYGNGSLMSTVPADLSQSVVDGNGNGSSEDIEATNGSGDGGGLQEQAEAQGEMEDEAYDEAALGSFVPIEKLQVNGITMADVKKLRESGLHTAEAVAYAPRKDLLEIKGISEAKADKLLNEAARLVPMGFVTAADFHMRRSELICLTTGSKNLDTLLGGGVETGSITELFGEFRTGKSQLCHTLAVTCQIPLDIGGGEGKCLYIDTEGTFRPVRLVSIAQRFGLDPDDALNNVAYARAYNADHQLRLLDAAAQMMSESRFSLIVVDSVMALYRTDFSGRGELSARQMHLAKFMRALQRLADQFGVAVVVTNQVVAQVDGGMAFNPDPKKPIGGNIMAHSSTTRLGFKKGKGCQRLCKVVDSPCLPEAECVFAIYEDGVGDPREEDE
B1 was tested, and the stoichiometry N was 15.
